Results on four molecules are retold here after patent US20220064286A1 (Genentech, published 2022).

To fix the notation:
T1: human TIGIT protein (human, UniProt Q495A1 22-141, limits assumed)
T1 construct: Recombinant protein (Genentech) used in ELISA screening and as SPR analyte; also called TIGIT antigen
T1 sequence: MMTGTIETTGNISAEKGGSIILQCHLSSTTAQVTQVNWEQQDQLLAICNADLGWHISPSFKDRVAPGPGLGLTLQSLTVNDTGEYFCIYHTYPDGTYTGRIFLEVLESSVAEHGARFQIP

T2: hTIGIT mutant H76A (human, UniProt Q495A1)
T2 sequence (TIGIT, looked up): T1 sequence with H55A

T3: hTIGIT mutant T117A (human, UniProt Q495A1)
T3 sequence (TIGIT, looked up): T1 sequence with T96A

T4: hTIGIT mutant N70A (human, UniProt Q495A1)
T4 sequence (TIGIT, looked up): T1 sequence with N49A

T5: hTIGIT mutant L65A (human, UniProt Q495A1)
T5 sequence (TIGIT, looked up): T1 sequence with L44A

T6: hTIGIT mutant H111A (human, UniProt Q495A1)
T6 sequence (TIGIT, looked up): T1 sequence with H90A

T7: hTIGIT mutant Q56A (human, UniProt Q495A1)
T7 sequence (TIGIT, looked up): T1 sequence with Q35A

T8: hTIGIT mutant I68A (human, UniProt Q495A1)
T8 sequence (TIGIT, looked up): T1 sequence with I47A

T9: hTIGIT mutant E60A (human, UniProt Q495A1)
T9 sequence (TIGIT, looked up): T1 sequence with E39A

B1: 4.1D3 (antibody, V domains shown)
VH: QVQLQQSGPGLVKPSQTLSLTCAISGDSVSSNSAAWNWIRQSPSRGLEWLGKTYYRFKWYSDYAVSVKGRITINPDTSKNQFSLQLNSVTPEDTAVFYCTRESTTYDLLAGPFDYWGQGTLVTVSS
VL: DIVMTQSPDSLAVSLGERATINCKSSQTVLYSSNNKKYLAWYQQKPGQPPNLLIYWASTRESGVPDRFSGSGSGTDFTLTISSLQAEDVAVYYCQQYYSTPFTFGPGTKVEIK
notes: OMT rat-derived human antibody; also called 4.1D3.Q1
B2: 4.1D3.Q1E (antibody, V domains shown)
VH: B1 VH with Q1E
VL: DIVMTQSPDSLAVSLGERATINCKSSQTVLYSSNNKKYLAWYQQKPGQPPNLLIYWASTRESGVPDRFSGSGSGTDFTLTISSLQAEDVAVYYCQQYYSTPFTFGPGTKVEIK
B3: 7.4A3.C96S.Q1E (antibody, V domains shown)
VH: EVQLVQSGSDLKKPGASVRVSCKASGYTFTSYPMNWVRQAPGHGLEWMGWINTNTGNPTYVQGFTGRFVFSLDTSVNTAYLQISSLKAEDTAVYFCARTGGHTYDSYAFDVWGQGTMVTVSS
VL: DIQLTQSPTFLSASVGDRVTITCRASQVISSSLAWYQQNPGKAPKLLIYAASTLQSGVPSRFSGSGSGTEFTLTISSLQPEDFVTYYCQHLHGYPSNFGQGTKVEIK
notes: also called 7.4A3.Q1E.C96S
B4: 10A7 (antibody, V domains shown)
VH: EVQLVESGGGLTQPGKSLKLSCEASGFTFSSFTMHWVRQSPGKGLEWVAFIRSGSGIVFYADAVRGRFTISRDNAKNLLFLQMNDLKSEDTAMYYCARRPLGHNTFDSWGQGTLVTVSS
VL: DIVMTQSPSSLAVSPGEKVTMTCKSSQSLYYSGVKENLLAWYQQKPGQSPKLLIYYASIRFTGVPDRFTGSGSGTDYTLTITSVQAEDMGQYFCQQGINNPLTFGDGTKLEIKR

Changes are numbered by the printed parent chain. In names and notes the source's numbering stands.

T10 sequence (A0A7N9I9V4 entry or part of it): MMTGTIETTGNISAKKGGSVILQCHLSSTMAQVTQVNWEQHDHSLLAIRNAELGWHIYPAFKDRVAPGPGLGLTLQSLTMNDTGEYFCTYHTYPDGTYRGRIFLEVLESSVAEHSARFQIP

The target in one experiment is T1, human TIGIT protein. Briefly: SPR, monovalent affinity. (Surface plasmon resonance follows binding to a sensor surface in real time, without labels.)
On to B1, for which binding was characterised by a dissociation constant (Kd) of 0.61 nM.
Turning to B2, the affinity, expressed as Kd, was 0.57 nM.
Turning to B3, the affinity, expressed as Kd, was 2.97 nM.

A further experiment addresses T10, cynomolgus monkey (cyno) TIGIT protein (cynomolgus monkey, UniProt A0A7N9I9V4 89-209). Briefly: SPR, monovalent affinity.
For the molecule B1, the affinity, expressed as Kd, was 3.4 nM.
The same measure, in the same setting: to B2 belongs 3.2 nM; to B3, 2.02 nM.

Another experiment has as its target T1, human TIGIT protein. Put plainly: SPR, captured mAb.
B1: the dissociation constant (Kd) (in general, a measure of binding affinity in units of concentration) is 0.43 nM; the koff (usually the rate constant with which the complex falls apart) amounted to 0.00164 s⁻¹; the on-rate (kon) (commonly the rate constant with which the complex forms) is 3.84e+06 M⁻¹ s⁻¹.
Turning to B2, the Kd worked out at 0.56 nM, the koff is 0.00097 s⁻¹ and the on-rate (kon) came to 1.72e+06 M⁻¹ s⁻¹.
For the molecule B3, binding was put at a Kd of 2.97 nM, the koff is 0.000856 s⁻¹ and the kon was determined as 288000 M⁻¹ s⁻¹.

Another experiment concerns the target T10, cynomolgus monkey (cyno) TIGIT protein. Briefly: SPR, captured mAb.
For the molecule B1, the equilibrium dissociation constant (Kd) stood at 3.33 nM, the off-rate (koff) is 0.00207 s⁻¹ and the on-rate (kon) is 621000 M⁻¹ s⁻¹.
For B2, in that order: 3.22 nM, 0.00154 s⁻¹ and 478000 M⁻¹ s⁻¹.
On to B3, for which the dissociation constant (Kd) stood at 2.01 nM, the off-rate (koff) was found to be 0.000556 s⁻¹ and the on-rate constant (kon) came out at 276000 M⁻¹ s⁻¹.

The next experiment deals with T2, hTIGIT mutant H76A. Briefly: SPR (BIACORE) KD normalized to WT, N=2.
Consider B4, for which the “Binding affinity drop vs. WT” value is over 11 fold.
Consider B1, for which the “Binding affinity drop vs. WT” value was determined as 1.4 fold.
The same measure, in the same setting: as for B3, the figure is 2.3 fold.

The next experiment addresses T3, hTIGIT mutant T117A. Briefly: SPR (BIACORE) KD normalized to WT, N=2.
B4: the “Binding affinity drop vs. WT” value was 0.8 fold.
B1: the “Binding affinity drop vs. WT” value was 1.4 fold.
As to B3, the “Binding affinity drop vs. WT” value came to 1.8 fold.

The next experiment addresses T4, hTIGIT mutant N70A. Put plainly: SPR (BIACORE) KD normalized to WT, N=2.
Take B4: the “Binding affinity drop vs. WT” value amounted to 0.5 fold.
As for B1, the “Binding affinity drop vs. WT” value was 3.4 fold.
Consider B3, for which the “Binding affinity drop vs. WT” value is 5.9 fold.

The target in another experiment is T5, hTIGIT mutant L65A. Put plainly: SPR (BIACORE) KD normalized to WT, N=2.
With B4, the “Binding affinity drop vs. WT” value was found to be 0.2 fold.
Consider B1, for which the “Binding affinity drop vs. WT” value came to 17.6 fold.
The same measure, in the same setting: to B3 belongs 2.2 fold.

The next experiment addresses T6, hTIGIT mutant H111A. Briefly: SPR (BIACORE) KD normalized to WT, N=2.
Take B4: the “Binding affinity drop vs. WT” value is 0.7 fold.
Regarding B1, the “Binding affinity drop vs. WT” value came out at 3.8 fold.
Regarding B3, the “Binding affinity drop vs. WT” value stood at 84 fold.

The next experiment concerns the target T7, hTIGIT mutant Q56A. Briefly: SPR (BIACORE) KD normalized to WT, N=2.
In the case of B4, the “Binding affinity drop vs. WT” value is 0.7 fold.
On to B1, for which the “Binding affinity drop vs. WT” value was 5.4 fold.
Same read-out and setting: as for B3, the figure is 13.2 fold.

The target in a further experiment is T8, hTIGIT mutant I68A. Put plainly: SPR (BIACORE) KD normalized to WT, N=2.
In the case of B4, the “Binding affinity drop vs. WT” value is 0.4 fold.
On the same count and under the same terms, to B1 belongs 21 fold; to B3, 2.7 fold.

The target in a further experiment is T9, hTIGIT mutant E60A. Briefly: SPR (BIACORE) KD normalized to WT, N=2.
B4: the “Binding affinity drop vs. WT” value was determined as 0.9 fold.
For B1, the “Binding affinity drop vs. WT” value was determined as 12.2 fold.
B3: the “Binding affinity drop vs. WT” value was found to be 2.7 fold.

Another experiment addresses T3, hTIGIT mutant T117A. Briefly: SPR (BIACORE), N=2.
B4 had an equilibrium dissociation constant (Kd) of 36.4 nM.
Molecule B1 gave a dissociation constant Kd of 0.7 nM.
The same measure, in the same setting: as for B3, the figure is 3.3 nM.

The next experiment concerns the target T9, hTIGIT mutant E60A. Briefly: SPR (BIACORE), N=2.
The molecule B4 displayed a Kd of 40.3 nM.
On the same count and under the same terms, to B1 belongs 6.1 nM; to B3, 4.8 nM.
